Values of other authors, collected in PMC5319824.
Values joined by “and” are separate entries in the source; they are usually repeats but may differ in a detail not shown here. Identical values can stand only once. Like-named read-outs stand apart in the source and are kept apart here.

How the values were obtained:
FtsZ (Escherichia coli) [1] = target: FtsZ (Escherichia coli) (UniProt P0A9A6)
FtsZ (Escherichia coli) [2] = target: FtsZ (Escherichia coli) (UniProt P0A9A6); remark: listed apart in the source
FtsZ (Escherichia coli) [3] = target: FtsZ (Escherichia coli) (UniProt P0A9A6); remark: listed apart in the source

FtsZ (Escherichia coli), sequence (P0A9A6 whole entry): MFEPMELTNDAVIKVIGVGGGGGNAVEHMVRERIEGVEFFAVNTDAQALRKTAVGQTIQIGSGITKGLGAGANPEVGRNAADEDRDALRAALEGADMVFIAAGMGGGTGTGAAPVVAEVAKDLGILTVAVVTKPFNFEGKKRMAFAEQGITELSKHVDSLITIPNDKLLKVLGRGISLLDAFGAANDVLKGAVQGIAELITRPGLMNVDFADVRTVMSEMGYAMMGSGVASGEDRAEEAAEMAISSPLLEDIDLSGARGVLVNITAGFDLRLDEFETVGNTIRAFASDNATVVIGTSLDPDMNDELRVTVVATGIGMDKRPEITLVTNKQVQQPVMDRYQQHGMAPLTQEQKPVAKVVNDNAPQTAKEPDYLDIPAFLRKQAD
FtsA, sequence (P0ABH0 whole entry): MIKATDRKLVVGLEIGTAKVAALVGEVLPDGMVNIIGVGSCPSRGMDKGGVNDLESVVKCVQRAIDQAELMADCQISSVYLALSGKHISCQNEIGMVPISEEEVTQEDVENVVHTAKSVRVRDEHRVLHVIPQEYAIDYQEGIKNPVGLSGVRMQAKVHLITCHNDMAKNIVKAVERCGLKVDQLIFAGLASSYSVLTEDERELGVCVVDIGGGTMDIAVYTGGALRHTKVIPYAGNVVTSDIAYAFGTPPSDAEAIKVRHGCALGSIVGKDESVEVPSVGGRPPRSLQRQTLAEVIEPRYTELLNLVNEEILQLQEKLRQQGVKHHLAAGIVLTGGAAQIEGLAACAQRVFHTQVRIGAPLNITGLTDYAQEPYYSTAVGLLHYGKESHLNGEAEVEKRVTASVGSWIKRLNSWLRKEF

| Substance | Kd (FtsZ (Escherichia coli) [1]) [µM] | Kd (FtsZ (Escherichia coli) [2]) [µM] | Kd (FtsZ (Escherichia coli) [3]) |
| --- | --- | --- | --- |
| FtsA (from UniProt P0ABH0) | > 40 | – | – |
| ZipA (from UniProt P77173) | – | 0.4 | 30 µM and 140 µM |
